± gives the uncertainty stated by the source.
test: protein stability index of a GFP-peptide fusion (yeast GPS) (PSI 1-4); higher = more stable; sorted into four equal gates, so the index is relative within each strain; details: pdr5∆
How it was run: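 Plasmids isolated from each sorting gate were PCR-amplified and Illumina-sequenced, and barcodes assigned the reads to strains. The gates, four of equal size, were set by GFP/Cherry fluorescence ratio on mid-log cultures in leucine-free medium. These cultures were yeast carrying a pooled library of tiled 17-residue yeast protein peptides fused downstream of GFP on a plasmid that also expresses Cherry. The protein stability index is the sum of every gate's read frequency times its gate number.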

In order of falling protein stability index:
1. IETEFLLFTVKLKGLMK [IRR1]  3.06 ± 0.22
2. IEKVDRENMICKIDFQK [RRI2]  3.03 ± 0.1
3. IELSVPDRQSMDSRVAH [SRB5]  2.96 ± 0.14
4. IEQCKHPLHELIIQYPP [ISW2]  2.82 ± 0.094
5. IESQMRDLILTEYGRKY [PRP8]  2.04 ± 0.073
6. IEQEKQEQQEQDKKKKS [PRE6]  1.82 ± 0.06

same assay, conditions: san1∆

In order of rising protein stability index:
1. GVIALGQFVTLGCTLVT [RMP1]  1.18 ± 0.15
2. HDFIKGLIMLNLQPASV [NUT1]  1.22 ± 0.14
3. HPPDFKRMLLSLSEFAR [SNF2]  1.26 ± 0.064
4. HMAKGLYYGSYRSPRVL [COB]  1.3 ± 0.13
5. IADSTHVKRITKIAQSQ [ECM29]  1.3 ± 0.12
6. HPAYLFKGLETPLKARQ [YLR018C/POM34]  1.36 ± 0.077
7. HYLFNTFTFTAHMGVLL [SWP82]  1.39 ± 0.072
8. HWPLNWYLILSIISSKT [RGR1]  1.4 ± 0.21
9. GVTSLIKNLGLPSDRCS [RPP1]  1.5 ± 0.12
10. GTFKSTLDREYITLKAT [QCR2]  1.51 ± 0.099
11. HIRRMVPLAMGIVSVSD [RPN1]  1.55 ± 0.083
12. HLIPNEIKGASETPLQK [RPN4]  1.55 ± 0.13
13. HMATALQIAQLTLKHRQ [RPN10]  1.59 ± 0.11
14. IDLLTFQYGSRLPTFLK [RPP1]  1.6 ± 0.081
15. IAIIKDTSDIIVDPTAE [RRP46]  1.71 ± 0.078
16. HKYVLTLQLYMVHREFL [RGR1]  1.86 ± 0.055
17. HTATDIYQTLIALNLDT [SNF2]  1.88 ± 0.046
18. HGIVFQHPFPLAHSQHR [SSN2]  2.01 ± 0.085
19. IDESLFNLLILSLNKRI [YCG1]  2.03 ± 0.077
20. IAAMVAQKCGWTIPHKK [SIR2]  2.06 ± 0.15
21. HALYLAPSGIRMHLAPA [SSN2]  2.09 ± 0.13
22. HTLDIINVLTDQNPIQV [RPS5]  2.12 ± 0.096
23. IDEVFSWYLNTFDGIRM [GRR1]  2.14 ± 0.062
24. ICEDPETAKKITFHPKI [SMC2]  2.16 ± 0.28
25. HKHALHGTAKALAAAKK [RPL29]  2.24 ± 0.023
26. GWYHSHPGFGCWLSSVD [RPN11]  2.35 ± 0.087
27. IDNSPQAISYLHKLQRM [GRR1]  2.4 ± 0.045
28. HFELGGEKKQKGQALQF [RPL42A]  2.46 ± 0.094
29. HVIQIPLNKPLLTEELA [TAF14]  2.49 ± 0.053
30. IEDRDFLVRYACEPTAE [SIR3]  2.53 ± 0.074
31. IAFASNYGIVELDPECQ [RRP43]  2.54 ± 0.059
32. HQSELIIKQTVHPIPDV [YMR129W/POM152]  2.55 ± 0.071
33. IEQCKHPLHELIIQYPP [ISW2]  2.59 ± 0.1
34. IDFAPTSPFGGARPGRV [RPS9A]  2.62 ± 0.074
35. IDLCHDFPHLTPKLQTQ [YCS4]  2.63 ± 0.042
36. IDAALDKQYRTAVATLL [SMC3]  2.65 ± 0.12
37. HNGAPHHAIEEAESLLQ [RPO21]  2.66 ± 0.29
38. IAARRTGLLRGSQKTQD [RPL2A]  2.66 ± 0.075
39. IAVLIELLEERFQDSNP [YCS4]  2.66 ± 0.063
40. IDVDMDASPAPSNESCS [SRB5]  2.66 ± 0.057
41. HFVQEEPLAFYLEESFT [RGR1]  2.67 ± 0.04
42. GTGRAVARIPRVGGGGT [RPL4A]  2.68 ± 0.21
43. IAEGQKKFATVPTGGAS [RPP2B]  2.69 ± 0.06
44. GTSLKVAPVSEIVNMVP [SIR2]  2.7 ± 0.069
45. HTDVSSSLEARYFFYLS [RPN3]  2.72 ± 0.11
46. HDGGFDLVHIKDSLDNT [RPS4A]  2.73 ± 0.12
47. HLHDAVFVNTGLQNVRK [SWP82]  2.77 ± 0.1
48. GTLDINPDDDYGFKQEI [FAS1]  2.79 ± 0.099
49. IEIMGILMGFTLKDNIV [RRI1]  2.81 ± 0.12
50. GVLLRDAHGVTQARVIT [RPS13]  2.85 ± 0.14
51. HDELDMNECIADQDMED [ESC2]  2.87 ± 0.07
52. HMADAKIMPKDILQITK [SIR4]  2.87 ± 0.071
53. GTLGEIFIRCNNVLYIR [SMX3]  2.9 ± 0.1
54. HISKIIGLDTQQVEGKL [RPN6]  2.9 ± 0.065
55. IAKTFTVDVSSPTENGV [RPL22A]  2.9 ± 0.094
56. IALNLASKKFGKICLIL [SSN2]  2.9 ± 0.071
57. IDLLWKGKTPKNAAESS [PRP28]  2.91 ± 0.15
58. HLRYQPDGVVVHRDDPA [SNF6]  2.94 ± 0.082
59. IEKNVMESIGSDILTAE [RRP4]  2.95 ± 0.2
60. IEANVTVKTSDDYVLRI [RPS1A]  2.96 ± 0.036
61. HRDAYSGGSVNLYHVTE [PRE2]  3 ± 0.07
62. IDEDKLYPSFKPIYKDT [SSN2]  3 ± 0.053
63. IDFFKTDDSFEDKVFAS [BRN1]  3 ± 0.093
64. GTTATGTGLFGQQTAQP [YGR119C/NUP57]  3.02 ± 0.18
65. GVTSLGIKATNGVVIAT [PRE8]  3.05 ± 0.1
66. HILFQNNPDMMIQPPQQ [ROX3]  3.06 ± 0.066
67. HLSSKTGLHFGRLSLRS [QCR10]  3.06 ± 0.11
68. HGGGNHQHIGKASTISR [RPL2A]  3.08 ± 0.039
69. HTSSSDGNNEIFTCQIM [RPN4]  3.08 ± 0.064
70. HAGTAIGIMASDGIVLA [PRE9]  3.09 ± 0.1
71. IDSVEVETNTTVLADEF [RPB3]  3.09 ± 0.051
72. HIGHSALKGPVRDKLDE [DPB4]  3.11 ± 0.084
73. HRWGTKKLPRKTHRGLR [RPL3]  3.12 ± 0.084
74. GTGLQSYLEERERQVNE [RPC53]  3.14 ± 0.11
75. GVHTGQFIYAGKKASLN [RPL2A]  3.15 ± 0.1
76. HSSSVFKGTDFVHSVKK [SRB4]  3.15 ± 0.048
77. IEAEEAEEIGVEHLLRD [RPN8]  3.15 ± 0.13
78. IELSVPDRQSMDSRVAH [SRB5]  3.17 ± 0.13
79. HSKRELDSGDDQPQSSE [BRR2]  3.18 ± 0.057
80. IEKVDRENMICKIDFQK [RRI2]  3.18 ± 0.063
81. HIILDTISECNLYDDVK [MED1]  3.19 ± 0.067
82. GTWSAKEAVFKSLGVKS [FAS2]  3.23 ± 0.1
83. HPTVVDAIDNSDEITQD [IRR1]  3.23 ± 0.068
84. IDKNHGFERLTVNEPQM [SRB7]  3.23 ± 0.14
85. HLGLDDPQDVFNYNIFM [SIR2]  3.24 ± 0.13
86. GVDAMSVDDLKKLNKNK [RPL1A]  3.25 ± 0.058
87. HELITNIGETAGVVQDI [RPB9]  3.27 ± 0.07
88. HSNESSNETIGEIQLLF [IRR1]  3.27 ± 0.082
89. IAAERAARKAANKEKRA [RPL7B]  3.28 ± 0.22
90. HGMTLRESFEDNVVRFL [RPO21]  3.29 ± 0.089
91. IAKFERSEEEVTKLNVL [YIL149C/MLP2]  3.31 ± 0.051
92. IEEQGWGGFPLDISVFL [TAF14]  3.35 ± 0.048
93. HMDYDGNIVKEFENKFQ [YMR129W/POM152]  3.36 ± 0.049
94. IEKFEQVPDSLDDQIFV [RPN6]  3.53 ± 0.053

From the supplement of paper PMC9732359
